For this series, the target named is GST-DCL3 F5 (UniProt Q9LXW7). In words: MST. As to conditions: MST: 50 mM Tris-HCl pH 7.4, 150 mM NaCl, 10 mM MgCl2, 0.01% Tween 20, 100 nM RED-NHS labelled protein, incubation 5 min at room temperature (instrument printed …).
Chain of UniProt Q9LXW7 (Q9LXW7 whole entry): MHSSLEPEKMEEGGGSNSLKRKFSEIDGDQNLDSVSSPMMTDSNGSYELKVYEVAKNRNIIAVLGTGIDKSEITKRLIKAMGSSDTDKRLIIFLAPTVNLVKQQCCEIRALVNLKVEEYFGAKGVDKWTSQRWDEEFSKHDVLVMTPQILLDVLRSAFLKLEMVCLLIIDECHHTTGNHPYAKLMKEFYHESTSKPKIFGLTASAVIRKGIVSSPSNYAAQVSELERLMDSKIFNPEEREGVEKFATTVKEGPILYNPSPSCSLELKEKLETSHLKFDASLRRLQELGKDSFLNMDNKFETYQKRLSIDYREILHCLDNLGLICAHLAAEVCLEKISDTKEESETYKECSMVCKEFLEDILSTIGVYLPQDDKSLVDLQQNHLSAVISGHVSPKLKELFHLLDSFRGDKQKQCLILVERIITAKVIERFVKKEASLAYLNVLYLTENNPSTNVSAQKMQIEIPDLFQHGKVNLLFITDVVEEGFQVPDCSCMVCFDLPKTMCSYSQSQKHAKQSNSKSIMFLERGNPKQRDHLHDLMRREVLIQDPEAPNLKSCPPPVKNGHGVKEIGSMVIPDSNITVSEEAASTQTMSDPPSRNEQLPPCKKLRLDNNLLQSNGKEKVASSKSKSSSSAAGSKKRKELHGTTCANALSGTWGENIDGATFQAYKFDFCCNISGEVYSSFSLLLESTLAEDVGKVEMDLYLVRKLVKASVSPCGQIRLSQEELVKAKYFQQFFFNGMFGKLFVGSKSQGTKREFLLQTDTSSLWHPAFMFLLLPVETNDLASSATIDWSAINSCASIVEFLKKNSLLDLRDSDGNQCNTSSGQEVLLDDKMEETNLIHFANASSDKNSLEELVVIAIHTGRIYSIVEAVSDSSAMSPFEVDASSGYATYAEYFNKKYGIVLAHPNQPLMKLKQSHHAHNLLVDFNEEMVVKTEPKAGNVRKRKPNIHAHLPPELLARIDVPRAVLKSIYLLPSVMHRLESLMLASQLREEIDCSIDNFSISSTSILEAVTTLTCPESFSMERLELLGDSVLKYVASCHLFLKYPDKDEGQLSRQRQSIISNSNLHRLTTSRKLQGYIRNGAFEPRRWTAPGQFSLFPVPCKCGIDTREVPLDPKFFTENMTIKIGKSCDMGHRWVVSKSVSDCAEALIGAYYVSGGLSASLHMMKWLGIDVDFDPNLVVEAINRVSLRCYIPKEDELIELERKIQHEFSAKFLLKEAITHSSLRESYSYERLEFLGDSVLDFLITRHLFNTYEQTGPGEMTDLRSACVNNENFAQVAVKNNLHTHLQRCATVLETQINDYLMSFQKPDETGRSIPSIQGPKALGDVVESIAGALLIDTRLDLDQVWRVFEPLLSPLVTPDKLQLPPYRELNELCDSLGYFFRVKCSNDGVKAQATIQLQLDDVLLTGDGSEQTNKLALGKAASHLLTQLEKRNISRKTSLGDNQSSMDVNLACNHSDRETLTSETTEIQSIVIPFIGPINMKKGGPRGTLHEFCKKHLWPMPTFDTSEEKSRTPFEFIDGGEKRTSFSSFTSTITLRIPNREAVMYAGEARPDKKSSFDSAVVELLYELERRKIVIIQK
In general, Kd refers to the constant that tells how readily two partners part at equilibrium. Higher therefore signals a looser complex. Substance “UCGCUUGGUGCAGGUCGGGAA / CCCGCCUUGCAUCAACUGAAU [miR168a duplex]” came in with a Kd of 1.06 µM. In the case of “UACAAGACACGUGCUGAAGUCAAGUUUGAGGGAACACCCUCGUCAACAGGAUCG / AUCCUGUUGACGAGGGUGUCUCCCUCAAACUUGACUUCAGCACGUGUCUUGUAGU [55-bp ds-sRNA]”, the Kd was 0.582 µM. As for “AGAAUCUUGAUGAUGCUGCAU / GUGGCAUCAUCAAGAUUCACA [miR172a duplex]”, the Kd worked out at 0.927 µM. 21-nt ss-sRNA gave a Kd of 1.87 µM. In turn, 24-nt ss-sRNA registered a Kd of 1.22 µM. “UCAACAGGAUCGAGCUUAAGG / UUAAGCUCGAUCCUGUUGACG [21-bp ds-sRNA (ds siRGFP)]”: the Kd came to 0.575 µM. “UGAAUUUCUGGUAUGGGUCCCGCC / CGGGACCCAUACCAGAAAUUCAUC [24-bp ds-sRNA (dsAtSN1)]” returned a Kd of 0.553 µM. 55-nt ss-sRNA registered a Kd of 1.16 µM.

These data come from article PMC10987413.
